Data set [1] concerns the target T1, WRKY54 DBD (Arabidopsis thaliana, UniProt Q93WU8 133-224).
T1 sequence: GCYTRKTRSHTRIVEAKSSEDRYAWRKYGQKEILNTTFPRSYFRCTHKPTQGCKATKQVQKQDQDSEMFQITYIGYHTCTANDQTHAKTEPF
Put plainly: QCM; text also gives 68 ± 11.73 pM for T13 (inconsistent); QCM: 30 mM HEPES pH 7.5, 0.5 M NaCl, 2 mM TCEP, 25 °C, biotin-dsDNA on avidin; fEMSA: 30 min incubation in the dark, native PAGE 4 °C 120 V 90 min, buffer not stated. Conditions: protein: recombinant; tags: N-term MBP + thrombin site; C-term 12xHis; label: 5' fluorescein (fEMSA); 5' biotin (QCM).

Data set [2] addresses T1, WRKY54 DBD. Put plainly: EMSA; QCM: 30 mM HEPES pH 7.5, 0.5 M NaCl, 2 mM TCEP, 25 °C, biotin-dsDNA on avidin; fEMSA: 30 min incubation in the dark, native PAGE 4 °C 120 V 90 min, buffer not stated. Conditions: protein: recombinant, tags: N-term MBP + thrombin site, C-term 12xHis.
For data set [3], the target named is T1, WRKY54 DBD. Put plainly: QCM; QCM: 30 mM HEPES pH 7.5, 0.5 M NaCl, 2 mM TCEP, 25 °C, biotin-dsDNA on avidin; fEMSA: 30 min incubation in the dark, native PAGE 4 °C 120 V 90 min, buffer not stated. Conditions: protein: recombinant; tags: N-term MBP + thrombin site; C-term 12xHis; label: 5' fluorescein (fEMSA); 5' biotin (QCM).
The mark [4] stands for this setting: label: 5' fluorescein (fEMSA), 5' biotin (QCM).

B1: T13 (dsDNA)
DNA 1: ATTTGTTGACTAG
DNA 2: CTAGTCAACAAAT
For B1, in the data set with WRKY54 DBD [1], the Kd is 0.192 ± 0.0225 nM.

B2: T6 (dsDNA)
DNA 1: TTGACT
DNA 2: AGTCAA
Take B2: the binding result with WRKY54 DBD [2] (setting [4]) was “no binding”.

B3: T8 (dsDNA)
DNA 1: GTTGACTA
DNA 2: TAGTCAAC
For B3, in the data set with WRKY54 DBD [2] (setting [4]), the binding result is given as “no binding”.

B4: W2 (dsDNA)
DNA 1: GTTATTTGACCACC
DNA 2: GGTGGTCAAATAAC
On to B4, for which the binding result with WRKY54 DBD [2] (label: 5' fluorescein) is “no binding”.

B5: T12a (dsDNA)
DNA 1: TTGTTGACTAGG
DNA 2: CCTAGTCAACAA
With B5, the Kd with WRKY54 DBD [3] was 0.047 ± 0.0062 nM.

B6: W1 (dsDNA)
DNA 1: TGTCCTTGACTACA
DNA 2: TGTAGTCAAGGACA
As for B6, in the data set with WRKY54 DBD [2] (label: 5' fluorescein), the binding result was “no binding”.

B7: T10 (dsDNA)
DNA 1: GTTGACTAGG
DNA 2: CCTAGTCAAC
On to B7, for which, in the data set with WRKY54 DBD [2] (setting [4]), the binding result is on record as “no binding”.

B8: W4 (dsDNA)
DNA 1: ATTTGTTGACTAGG
DNA 2: CCTAGTCAACAAAT
B8: the Kd with WRKY54 DBD [3] was determined as 0.163 ± 0.0101 nM.

B9: W3 (dsDNA)
DNA 1: TTAACTTGACCCAA
DNA 2: TTGGGTCAAGTTAA
In the case of B9, in the data set with WRKY54 DBD [2] (label: 5' fluorescein), the binding result was “no binding”.

B10: T12 (dsDNA)
DNA 1: ATTTGTTGACTA
DNA 2: TAGTCAACAAAT
B10: the Kd with WRKY54 DBD [3] came out at 2.19 ± 0.442 nM.

For orientation: Kd means the constant that tells how readily two partners part at equilibrium.

The record behind these values is PMC8911475, “Insight into the Phylogeny and Binding Ability of WRKY Transcription Factors”.
